Data: article PMC8359340

Target: Synechococcus sp. PCC 7002 Type 2 β‐McdB (Synechococcus sp. PCC 7002)
Assay: SEC-MALS

stoichiometry N: 2
Substance: Synechococcus sp. PCC 7002 Type 2 β‐McdB (natural protein)
